Columns and labels:
[1] = Delivery and clearance of sodium fluorescein from the suprachoroidal space in live rabbits (Example 5); assay type: in vivo, rabbit; details: SCS injection
Procedure: The delivery of a fluorescent molecule (sodium fluorescein) to the suprachoroidal space was evaluated using rabbits according to approved live animal experimental protocols. A one dimensional scan of the eye (through line of sight) was taken within the first five minutes after injection to determine the dispersion of the fluorescent molecule in the eye (FIG. 14). The y-axis indicates the fluorescent intensity (i.e., the concentration) and the x-axis represents the position in the eye from front (160) to back (0). Thus, the results illustrate that within the first 5 minutes after injection, the fluorescein had already flowed through the suprachoroidal space to the back of the eye. with some remaining at the initial insertion site.
Similar scans were taken to evaluate the rate of clearance of fluorescein from the suprachoroidal space over time (FIG. 15). The fluorescent intensity was measured in two regions of the eye (the suprachoroidal space and mid-vitreous region) over time. The results illustrate that the bulk of the material injected remains in the suprachoroidal space without passing into the mid-vitreous region and that the material substantially cleared the suprachoroidal space within 24 hours.

[2] = Phase 1 safety and tolerability of suprachoroidal bevacizumab in patients with CNV secondary to wet AMD (Example 14); assay type: in vivo, human
Procedure: (§1) The safety and tolerabilty of a single microneedle injection of bevacizumab into the suprachoroidal space (SCS) using a micronocedle was evaluated. Four adult patients with choroidal neovascularization (CNV), secondary to wet age-related macular degeneration (AMD), were enrolled in a phase 1, single-center, open-label study. Each subject provided informed consent and was screened for eligibility. […] Treated patients remained in the clinic for 4 hours for observation and then retumed multiple times for follow-up during a 2 month period. Major safety examinations included intraocular pressure (IOP), angiograms, biomicroscopy, indirect ophthalmoscopy, fundus photography, optical coherence tomography (OCT), visual acuity (VA) (Table 8), and assessment of pain.

[3] = Visual acuity of patients after suprachoroidal bevacizumab (Example 14); assay type: in vivo, human
Procedure: as §1

In the case of `O=C1OC2(c3ccc(O)cc3Oc3cc(O)ccc32)c2ccccc21` [fluorescein, sodium fluorescein], the “time to substantial clearance from the suprachoroidal space” value ([1]; fluorescent intensity) is reported as at most 24 h and the “time for fluorescein to flow through the suprachoroidal space to the back of the eye” value ([1]; one dimensional fluorescence scan) is reported as at most 5 min.
In the case of “bevacizumab: humanized monoclonal antibody, angiogenesis inhibitor (Avastin)”, the “effect on IOP, OCT or VA” value ([2]; 100 μL bevacizumab SCS, any subject) is reported as “No negative effect”, the “adverse events related to bevacizumab or the method of administration” value ([2]; 100 μL bevacizumab SCS, ophthalmic examinations) is reported as “no unexpected or serious adverse events” and the “level of pain recorded for the administration” value ([2]; 100 μL bevacizumab SCS, topical anesthesia, four patients) is reported as “moderate”. The “intraretinal fluid (OCT)” value ([2]; patient number 3, 56 days after injection vs before injection) was “Decrease”, the “rescue therapy or reinjection” value ([2]; two months following treatment) was “No patients required rescue therapy or reinjection” and the “Visual Acuity” value ([3]; Patient 1, 28 day post dose) was 20/40. For the same compound, the “Visual Acuity” value ([3]; Patient 1, 56 day post dose) was 20/40, the “Visual Acuity” value ([3]; Patient 1, Pre-does) was 20/80 and the “Visual Acuity” value ([3]; Patient 1, Screening) was 20/40. For the same compound, the “Visual Acuity” value ([3]; Patient 2, 28 day post dose) was 20/20, the “Visual Acuity” value ([3]; Patient 2, 56 day post dose) was 20/20 and the “Visual Acuity” value ([3]; Patient 2, Pre-does) was 20/40. The “Visual Acuity” value ([3]; Patient 2, Screening) was 20/40, the “Visual Acuity” value ([3]; Patient 3, 28 day post dose) was 20/250 and the “Visual Acuity” value ([3]; Patient 3, 56 day post dose) was 20/250. For the same compound, the “Visual Acuity” value ([3]; Patient 3, Pre-does) was 20/320, the “Visual Acuity” value ([3]; Patient 3, Screening) was 20/320 and the “Visual Acuity” value ([3]; Patient 4, 28 day post dose) was 20/400. The “Visual Acuity” value ([3]; Patient 4, 56 day post dose) was 20/400, the “Visual Acuity” value ([3]; Patient 4, Pre-does) was 20/400 and the “Visual Acuity” value ([3]; Patient 4, Screening) was 20/400.

— patent US20180028516A1, “METHODS AND DEVICES FOR THE TREATMENT OF OCULAR DISEASES IN HUMAN SUBJECTS” (CLEARSIDE BIOMEDICAL, INC., priority 2012, published 2018)
